The values below come from US20220340657A1 (L AND L BIO CO LTD NINGBO CHINA, published 2022).

Assay [1] concerns the target T1, human LAG-3-his (human, UniProt P18627 23-422).
T1 construct: range 23-422; also called hLAG-3-his; hLAG-3
T1 sequence: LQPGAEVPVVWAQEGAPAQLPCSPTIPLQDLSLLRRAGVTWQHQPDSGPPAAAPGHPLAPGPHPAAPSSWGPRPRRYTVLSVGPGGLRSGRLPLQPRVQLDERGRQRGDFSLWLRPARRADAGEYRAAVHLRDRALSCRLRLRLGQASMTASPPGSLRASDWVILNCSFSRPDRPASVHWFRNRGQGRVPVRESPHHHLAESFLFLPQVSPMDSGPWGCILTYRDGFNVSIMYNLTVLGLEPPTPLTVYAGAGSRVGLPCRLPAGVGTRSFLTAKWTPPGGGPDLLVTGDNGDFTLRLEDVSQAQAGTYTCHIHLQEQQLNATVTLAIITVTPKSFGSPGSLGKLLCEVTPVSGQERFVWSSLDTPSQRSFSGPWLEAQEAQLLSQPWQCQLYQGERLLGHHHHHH
The assay can be described thus: ELISA. As to the method:
(§1) After discarding the liquid, a blocking solution of 5% skimmed milk (Bright skimmed milk powder) diluted with PBS was added at 230 μl per well, followed by incubating at 37° C. for 3 hours or 4° C. overnight (16-18 hours) for blocking. Subsequently, the blocking solution was discarded, and the micropiate was washed 5 times with PBST buffer (pH 7.4 PBS containing 0.05% tweeen-20). Then 50 μl/well of the supernatant (containing the antibody to be tested) or a starting concentration of 10 μg/ml of the antibody to be tested, which was diluted 5 times in gradient, was added, followed by incubating the mixture for 1 hour at 37° C. […] After washing the microplate 5 times with PBST, 50 μl/well TIMB chromogenic substrate (KPL, Cat. No.: 52-00-03) was added, and then incubated for […] at room temperature. Finally, 50 μl/well of 1 M H₂SO₄ was added to stop the reaction. The absorbance value at 450 nm was read by […] GO microplate reader (ThermoFisher, Cat. No.: 51119200). The clones with high affinity were selected according to the OD value or the EC₅₀ value was calculated (for antibodies with known concentrations).
In general terms: In an ELISA, binding on a coated surface is turned into a signal by an enzyme label.

The next assay deals with T2, human LAG-3-hFc (human, UniProt P18627 23-422).
T2 construct: range 23-422; also called hLAG-3-hFc
T2 sequence (looked up): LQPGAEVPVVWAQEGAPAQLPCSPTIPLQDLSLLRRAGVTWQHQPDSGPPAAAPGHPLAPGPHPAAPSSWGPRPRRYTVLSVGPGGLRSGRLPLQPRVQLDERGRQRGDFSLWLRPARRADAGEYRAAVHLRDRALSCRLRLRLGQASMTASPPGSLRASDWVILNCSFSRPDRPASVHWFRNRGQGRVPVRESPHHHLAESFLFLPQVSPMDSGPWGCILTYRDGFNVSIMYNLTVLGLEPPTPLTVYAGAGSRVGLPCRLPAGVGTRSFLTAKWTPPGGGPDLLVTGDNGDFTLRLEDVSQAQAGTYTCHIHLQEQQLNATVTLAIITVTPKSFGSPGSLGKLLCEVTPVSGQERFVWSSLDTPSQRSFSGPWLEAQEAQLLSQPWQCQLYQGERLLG
Description: ELISA. As to the method: as §1

The target of another assay is T3, hLAG-3-D12-his (human, UniProt P18627 23-239).
T3 construct: range 23-239
T3 sequence: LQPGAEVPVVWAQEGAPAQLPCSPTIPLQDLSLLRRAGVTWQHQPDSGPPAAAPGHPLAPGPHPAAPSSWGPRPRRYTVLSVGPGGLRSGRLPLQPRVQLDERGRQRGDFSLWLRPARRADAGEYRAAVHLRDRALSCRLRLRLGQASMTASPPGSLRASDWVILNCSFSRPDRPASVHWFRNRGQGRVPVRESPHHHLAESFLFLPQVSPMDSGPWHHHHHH
The assay can be described thus: ELISA. The method, then: as §1

The next assay addresses T4, hLAG-3-D12-hFc (human, UniProt P18627 23-239).
T4 construct: range 23-239
T4 sequence (looked up): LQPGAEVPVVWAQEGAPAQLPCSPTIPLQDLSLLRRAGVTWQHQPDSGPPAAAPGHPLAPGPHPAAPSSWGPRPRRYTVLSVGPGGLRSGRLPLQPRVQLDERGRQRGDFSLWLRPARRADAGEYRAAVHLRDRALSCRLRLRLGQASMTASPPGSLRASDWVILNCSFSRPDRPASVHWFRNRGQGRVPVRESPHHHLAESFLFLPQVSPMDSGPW
The assay can be described thus: ELISA. As to the method:
as §1

A further assay addresses T5, cyno-LAG3-hFc (cynomolgus monkey).
T5 construct: Bought product; also called cynomolgus monkey LAG-3
The assay can be described thus: ELISA. As to the method:
as §1

Assay [2] addresses T6, murine LAG-3 his tagged (mLAG-3-his) (mouse, UniProt Q61790 23-406).
T6 construct: range 23-406; also called mouse LAG-3
T6 sequence: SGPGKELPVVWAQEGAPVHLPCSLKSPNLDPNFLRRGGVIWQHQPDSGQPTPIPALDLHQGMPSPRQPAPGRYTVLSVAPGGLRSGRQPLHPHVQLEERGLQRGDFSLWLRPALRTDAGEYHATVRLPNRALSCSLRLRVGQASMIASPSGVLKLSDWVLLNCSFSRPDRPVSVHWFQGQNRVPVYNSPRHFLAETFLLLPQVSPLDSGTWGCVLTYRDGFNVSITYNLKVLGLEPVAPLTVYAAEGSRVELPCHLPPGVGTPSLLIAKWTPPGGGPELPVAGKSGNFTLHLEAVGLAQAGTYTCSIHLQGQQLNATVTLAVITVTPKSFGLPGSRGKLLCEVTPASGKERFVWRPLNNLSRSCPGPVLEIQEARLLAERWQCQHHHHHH
The assay can be described thus: ELISA. As to the method:
as §1

The target of the next assay is T7, bio-LAG3-mFc (human, UniProt P18627 23-450, biotin-labelled).
T7 construct: also called hLAG-3
T7 sequence (looked up): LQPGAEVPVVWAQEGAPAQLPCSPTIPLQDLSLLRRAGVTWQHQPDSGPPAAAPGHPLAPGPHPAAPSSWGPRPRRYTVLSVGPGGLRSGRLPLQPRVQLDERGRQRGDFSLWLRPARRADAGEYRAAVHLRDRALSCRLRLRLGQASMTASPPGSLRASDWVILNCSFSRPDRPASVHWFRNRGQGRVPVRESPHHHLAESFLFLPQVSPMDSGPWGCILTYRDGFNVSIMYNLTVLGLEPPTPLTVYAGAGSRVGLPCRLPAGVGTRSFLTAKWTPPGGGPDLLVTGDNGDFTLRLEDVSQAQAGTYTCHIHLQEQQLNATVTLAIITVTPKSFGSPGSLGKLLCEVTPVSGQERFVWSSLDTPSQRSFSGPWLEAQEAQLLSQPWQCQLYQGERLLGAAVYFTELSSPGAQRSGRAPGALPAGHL
Description: blocking ELISA, LAG-3 on Daudi cells.

In assay [3] the target is T1, human LAG-3-his. Description: ELISA on human LAG-3, same experiment.

Where “and” joins values, the source holds several entries; their conditions need not be identical. Equal values may be shown once.

B1: humanized anti-human LAG-3 antibody Ab2317 (antibody, human IgG4 S228P, kappa, V domains shown)
VH: QVQLVQSGAEVKKPGASVKVSCKASGYTFTDYEMHWVKQAPGQGLEWIGGIDPETEGIAYNQKFRGRATLTADKSTSTAYMELRSLRSDDTAVYYCTNSNYYGGREAWFAYWGQGTLVTVSS
VL: DIQMTQSPSSLSASVGDRVTITCRASQDIGSSLNWYQQKPGKAPKRLIYATSSLDSGVPSRFSGSRSGSDFTLTISSLQPEDFATYYCLQYVTSPLTFGGGTKVEIKR
notes: LG2317 / LG2343, human kappa / hIgG4
As to B1, the EC50 with human LAG-3-his [1] was 0.16 nM; with human LAG-3-hFc, 0.25 nM; in the assay with hLAG-3-D12-his, 1.71 nM; with hLAG-3-D12-hFc, 2.59 nM; with cyno-LAG3-hFc, 40.2 nM; with human LAG-3-his [3] it was 0.287 nM and 0.579 nM and 0.44 nM. Also, the binding result in assay [2] was “no binding”. In addition, the IC50 with bio-LAG3-mFc came out at 2.7 nM.

B2: humanized antibody Ab2325 (antibody, human IgG4 S228P, kappa, V domains shown)
VH: QVQLVQSGAEVKKPGASVKVSCKASGYTFTDYEMHWVKQAPGQGLEWMGGIDPETEGIAYNQKFRGRATMTTDTSTSTAYMELRSLRSDDTAVYYCANSNYYGGREAWFAYWGQGTLVTVSS
VL: DIQMTQSPSSLSASVGDRVTITCRASQDIGSSLNWYQQKPGKAPKRLIYATSSLDSGVPSRFSGSRSGSDFTLTISSLQPEDFATYYCLQYVTSPLTFGGGTKVEIKR
notes: LG2317 / LG2348, human kappa / hIgG4
In the case of B2, the half-maximal effective concentration (EC50) amounted to 0.19 nM with human LAG-3-his [1]; 0.4 nM in the assay with human LAG-3-hFc; 1.51 nM in the assay with hLAG-3-D12-his; 2.01 nM with hLAG-3-D12-hFc; 44.5 nM in the assay with cyno-LAG3-hFc; 0.312 nM in the assay with human LAG-3-his [3]. Also, the binding result in assay [2] was “no binding”. In the assay with bio-LAG3-mFc, the concentration for half-maximal inhibition (IC50) amounted to 3.6 nM.

As a reminder, the EC50 is the concentration at which the effect is half-maximal. Read a low EC50 as an effect from little substance. For orientation: IC50 means the concentration that gives 50% inhibition. A lower IC50 goes with greater potency.
